The term Kd denotes the concentration at which binding is half-saturated. The koff is the rate constant with which the complex falls apart.

The labels stand for the following.
B1: BAKBH3, TAMRA-labelled 35-residue peptide (UniProt:Q16611, residues 64–98, P64A) (peptide)
peptide: {TAMRA}-ALQPSSTMGQVGRQLAIIGDDINRRYDSEFQTMLQ
B2: PUMABH3, TAMRA-labelled 35-residue peptide (UniProt: Q9BXH1, residues 127–161, M144A) (peptide)
peptide: {TAMRA}-RGEEEQWAREIGAQLRRAADDLNAQYERRRQEEQQ
B3: BAK (UniProt:Q16611, residues 16–185, C166S) (domain or fragment)
chain: EPALPSASEEQVAQDTEEVFRSYVFYRHQQEQEAEGVAAPADPEMVTLPLQPSSTMGQVGRQLAIIGDDINRRYDSEFQTMLQHLQPTAENAYEYFTKIATSLFESGINWGRVVALLGFGYRLALHVYQHGLTGFLGQVTRFVVDFMLHHSIARWIAQRGGWVAALNLGN
B4: MCL-1 (UniProt:Q07820, residues 168–327, C286S) (domain or fragment)
chain: GSEEEEDELYRQSLEIISRYLREQATGAKDTKPMGRSGATSRKALETLRRVGDGVQRNHETAFQGMLRKLDIKNEDDVKSLSRVMIHVFSDGVTNWGRIVTLISFGAFVAKHLKTINQESSIEPLAESITDVLVRTKRDWLVKQRGWDGFVEFFHVEDLEGG
B5: BIDBH3, TAMRA-labelled 35-residue peptide (UniProt:P55957, residues 76–110) (peptide)
peptide: {TAMRA}-SESQEDIIRNIARHLAQVGDSMDRSIPPGLVNGLA

Experiment in all cases: without detergent
Assay [1] deals with B3.
In assay [2] the target is B3. The source holds these as a separate data set.
Assay [3] has as its target B4.
Assay [4] concerns the target B4. This is another data set of the same source.
For assay [5], the target named is BAXBH3.
Assay [6] concerns the target MCL-1BH3.

No end group written: not given here. *: point of attachment. TAMRA = 5-carboxytetramethylrhodamine, CN(C)c1ccc2c(-c3ccc(C(=O)*)cc3C(=O)[O-])c3ccc(=[N+](C)C)cc-3oc2c1

Regarding B1, binding in assay [1] was characterised by a dissociation constant (Kd) of 1000 µM.
B2: the koff in assay [2] turned out to be 230 s⁻¹; in assay [3], 0.00246 s⁻¹. In addition, the Kd in assay [1] amounted to 220 µM; in assay [4], 0.000174 µM.
With B3, the Kd in assay [5] came out at 500 µM; in assay [6], 5000 µM.
In assay [5], B4 gave a Kd of 0.071 µM and a koff of 0.613 s⁻¹. In assay [6], the Kd came out at 0.182 µM and the koff stood at 0.52 s⁻¹.
With B5, the koff in assay [2] worked out at 1400 s⁻¹. The molecule also returned a Kd in assay [1] of 230 µM.

These data come from paper doi:10.1101/756874 (2019).
